Assay results reported in patent US20250382354A1 (INSTITUTE FOR RESEARCH IN BIOMEDICINE IRB, published 2025).

Key:
[1] = target: SARS-CoV-2 S of the Ancestral pseudovirus (pSARS-COV2-Strunc) (SARS-CoV-2 (ancestral), UniProt P0DTC2 14-1254); test: cell-based or functional assay
[2] = target: C-terminally truncated SARS-CoV-2 S protein (pSARS-CoV2-Strunc), ancestral (SARS-CoV-2, UniProt P0DTC2 14-1273); test: cell-based or functional assay

| Binder | Ancestral Pseudovirus IC50 [1] [ng/mL] | further results |
| --- | --- | --- |
| rbd.049 (antibody, V domains shown) VH: QLQLQESGPGLVKPSETLSLSCTVSGGSISSKSDYWGWIRQSPGKGLEWIGSIYYTGTTYYNPSLKSRVSISLDKSKNQFSLKLNSLTAADTALYYCARDPSIAVATTVYFDAWGQGTLVTVSS VL: EIVLTQSPGTLSLSPGERATLSCRASESVKSNYLAWYQQKLGQPPRLLIFGASTRATGIPDRFSGSGSGTDFTLTISRLEPEDFAVYYCQQYHTSPPRYTFGQGTKLEIK | 3710 |  |
| rbd.106 (antibody, V domains shown) VH: EVQLVQSGAEVKKPGESLKISCKGSGYSFYNHWIAWVRQMPGKGLEWMGIIYPYDSDTRYSPSFQGQVTISADKSITTAYLQWSSLKASDTAIYYCARRSDYGEFGGHSDYWGQGTLVTVSS VL: not shown | 67.4 |  |
| rbd.048 (antibody, V domains shown) VH: EVQLVESGGGLVQPGGSLRLSCAASGFTVSSNYMTWVRQAPGKGLEWVSVIYSGGSTFYTDSVKGRFTISRDNSKNTLYLQMNSLRAEDTAVYYCARDVVYYGMDVWGQGTTVTVSS VL: DIQMTQSPSSLSASVGDRVTITCRASQSISSYLNWYQQKPGKAPKLLIYAASSLQSGVPSRFSGSGSGTDFTLTISSLQPEDFATYYCQESYSNSPYTFGQGTKLEIK | 2.75 |  |
| rbd.038 (antibody, V domains shown) VH: QVQLVQSGAEVKKPGASVKVSCKASGYTFSGYYMHWVRQAPGQGLEWVGWISPTSGGTKYAQKFQGRVTMTRDTSITTVYMELNRLRSDDTAVYYCAREPFPYCTSDICHSNYFYYYAMDVWGQGTTVTVSS VL: QSALTQPPSASGSPGQSVTISCTGSSSDLGDHNYVSWYQQHPGKAPKVMIYEVSKRPSGVPDRFSGSKSGNTASLTVSGLQAEDEADYYCSSYAGSLYVFGTGTKVTVL | 0.552 |  |
| rbd.117 (antibody, V domains shown) VH: EVQLVESGGGLVQPGGSLRLSCAASGFTFSRYAMSWVRQAPGKGLEWVSGLSGSGDSTYYADSVKGRFTISRDNSKKTLNLQMNSLRPEDTAVYYCAKGSRFGIDYFDCWGQGTLVTVSS VL: DIQMTQSPSTLSASVGDRVTITCRASQSISSWLAWYQLKPGKAPKLLIYDASSLESGVPSRFSGSGSGTEFTLTISSLQPDDFATYYCQQYNTYPFSFGPGTKVDIK | 203 |  |
| rbd.123 (antibody, V domains shown) VH: QVQLVQSGAEVKKPGSSVKVSCKASGGAFRMYAISWVRQAPGQGLEWMGGIIPISGTATYTQNFQGRVTITVDRSTSTAYMELSSLRSDDTALYYCARGPRTGYDYFDFWGQGTLVTVSS VL: DIQMTQSPSTLSASVGDRVTITCRASQSISSWLAWYQQKPGKAPNLLIYDASSLESGVPSRFSGSGSGTEFTLTISSLQPDDFATYYCQQYKSYPYTFGQGTKLEIK | 1210 |  |
| sd1.127 (antibody, V domains shown) VH: EVQLVESGGALVKPGGSLTLSCVASGFTFSHAWMTWVRQAPGKGLEWVGRIKTKTEGGTIDYAAPLRGRFTISRDDSKNTLYLRMNSLKIEDTAKYYCTTHSSPDYWGQGTLVTVSS VL: DIQMTQSPSSLSASIGDRVTITCRASQGIGNSLLWYQQKRGKVPKLLIYAASTLQSGVPSRFSGSGSGTDFTLTISSLQPEDVATYYCQRYNSAPLTFGGGTKVEIK | 6680 |  |
| fp.007 (antibody, V domains shown) VH: EVQLVESGGGLVKPGGSLRLSCAGTGFIFSDAWMTWVRQAPGKGLEWVGRIKSKADGGTTDYAAPVKGRFTISRDDSKNTLYLEINSLKTEDTAVYYCTTGRSRYCIGAVCYYFDHWGQGTLVTVSS VL: not shown |  | Ancestral Pseudovirus IC50 [2]: 11100 ng/mL; Ancestral Pseudovirus IC50 (on cells with [not given]) [2]: 3980 ng/mL |
| rbd.112 (antibody, V domains shown) VH: EVQLVQSGAEVKKSGESLKISCKSSGYSFTTYWIAWVRQMPGKGLEWMGIIYPGHSDARYSPSFQGHVTISADKSISTAYLQWRSLKASDTAIYYCARLSYYDVSNFYYYDSYWFDSWGLGTLVTVSS VL: QSVLTQPPSVSGAPGQRVTISCTGSSSNLGAGYDVHWYQQLPGTAPKLLIYANSNRPSGVPDRFSGSKSGTSASLAMTGLQAEDEADYYCQSYDSSLGGYVFGFGTKVTVL | 86.7 |  |
| rbd.143 (antibody, V domains shown) VH: EVQLVESGGGLVQPGGSLRLSCSASGFTFRRYAMHWVRQAPGKGLQHVSAISSDGDNTHYADSVKGRFTISRDNFKNTLHLQMSSLRPEDTAVYYCVKDPFSNFHYFDCWGQGILVTVSS VL: not shown | 280 |  |
| rbd.141 (antibody, V domains shown) VH: EVQLVESGGGVVQPGRSLRLSCAASGFTFSSYGMHWVRQAPGKGLEWVAVISYDGKIKYYADSVEGRFTISRDNSKNALYLQMNSLRAEDTAVYYCAKYGIVTSFGVVPPYDMDVWGQGTTVTVSS VL: DVVMTQSPLSLPVTLGQPASISCRSSQSLVYSDGNTFLNWFQQRPGQSPRRLIYKVSDRDSGVPDRFSGSGSGTDFTLKISRVEAEDVGVYYCMQGTNWPPTFGQGTKVEIK | 164 |  |
| rbd.113 (antibody, V domains shown) VH: EVQLVQSGAAVKKPGESLKISCKGSGYSFTNYWIGWVRQMPGKGLELMGIIYVGDSDTRYSPSFQGQVTISADKSITTAYLQWSSLKASDSAIYYCARQRCGGDCPFDLWGRGTLVTVSS VL: DIQMTQSPSTLSASVGDRVTITCRASQSINRWLAWYQQKPGKAPELLIYDASDLESGVPSRFSGSGSGTEFTLTISSLQPDDFATYYCQQYNSYWTFGQGTKVEIK | 373 |  |
| rbd.031 (antibody, V domains shown) VH: EVQLVESGGGVVQPGRSLRLSCAASGFTFKTYGMHWVRQAPGKGLEWVAVISYEGSNEYYAESVKGRFTISRDNSKNTLYLHMNSLRAEDTAVYYCAKGEYYYHSSTYYYLDYWGRGTLVTVSS VL: DIQMTQSPSTLSASVGDRVTITCRASQSISSWLAWYQQKPGKAPKVLIYDASSLQSGVPLRFSGSGSGTEFTLTISSLQPDDFATYYCQQYDTYWTFGQGTKVEIK | 862 |  |
| rbd.043 (antibody, V domains shown) VH: QVQLVQSGAEVKKPGSSVKVSCKVSGGSFSNYGISWVRQAPGQGLEWMGGIIPLFGPADYAQKVQGRVTITADKSTSTAYMELRSLRSEDTAVYFCARGVEIVATIVGPLVREDHYYYYGMDVWGQGTTVTVSS VL: not shown | 0.573 |  |
| rbd.110 (antibody, V domains shown) VH: EVQLVESGGGVVQPGRSLRLSCVASGFTFSRYGMHWVRQAPGKGLEWVATILYDGSDQYYAESVKGRFTISRDNSKNTLYLQMNSLREADTAVYYCAKTSYGYAYNFRLYFDYWGQGTLVTVSS VL: SYELTQPPSVSVAPGKTATITCGGNNIGSAGVHWYQQRPGQAPVLVVYDDSDRPSGIPERFSGSTSGNTATLTISRVEAGDEADYYCQVWDSNSAPVIFGGGTKLTVL | 4250 |  |
| sd1.034 (antibody, V domains shown) VH: EVQLVESGGGVVQPGRSLRLSCAASGFSFSNYGMHWVRQAPGKGLEWVAVISYDGSHKSFADSVKGRFTISRDNSKNTLNLQMNSLRREDTAVYYCATDQGGSLGYWGQGTLVTVSS VL: QSALTQPASVSGSPGQSITISCTGTSGDVGGYNYVSWYQHHPGKAPKLMIYDVSNRPSGVSNRFSGSKSGNTASLTISGLQAEDEADYYCSSYTSTSTSWVFGGGTKLTVL | 387 |  |
| hr2.019 (antibody, V domains shown) VH: EVQLVESGGGLVKPGGSLRLSCAASGSSVIDVWMNWVRQAPGKGLEWVGRIKTKASGAATDYGAPVKGRFTISRDDSKNLSYLQMNSLRAEDTGIYYCTTSPLPNFDYWGRGTLVTVSS VL: DIVMTQSPDFLAVSLGETATINCRSSQSVFYFANNKNYLAWYQQKPGQPPKLLIYWASKRESGVPDRFSGSGSGTDFTLTISSLQAEDVATYYCQQYSSPAITFGPGTKVDIK |  | Ancestral Pseudovirus IC50 [2]: 1220 ng/mL |
| rbd.045 (antibody, V domains shown) VH: QVQLQESGPGLVKPSETLSLTCTVSGGAFRSFFWTWIRQPPGKGLEWIGNIYYSGSTNYNPSLKSRVTISQDMSENQFSLKLSSVTAADTAVYYCARSQWLRGNFDHWGQGILVTVSS VL: NFMLTQPHSVSESPGKTVTISCTATSGYIASNYVQWYQQRPGSAPTTVIYEDNQRPSGVPDRFSGSIDSSSNSASLTISGLKPEDEADYYCQSFDTAYAVFGGGTQLTVL | 5.57 |  |
| sd1.108 (antibody, V domains shown) VH: QVQLVQSGAEVKKPGASVKVSCKASGYTFTSYYIHWVRQTPGQGLEWMGIINPRGGSTSYPQKFQGRVSMTRDTSTSTVFMELSSLRSDDTAVYYCAREHREDTAMDNQPSDSWGQGTLVTVSS VL: DIVMTQSPDSLSVSLGERATINCKSSRSVFYSSNNKSYLAWYQQKPGQPPKLLIYWASTRESGVRDRFSGSGSGTDFTLTISSLQAEDVAVYYCQQYYNTPYTFGQGTKLEIK | 446 |  |
| rbd.035 (antibody, V domains shown) VH: EVQLLESGGGLIEPGGSLRLSCAASGFPFNTFAMTWVRQPPGKGLEWVATISSRGDYTFYADFVKGRFSISRDNANNALWLDMSGLRAEDTALYYCAKGESGYDLYLYGLDLWGQGTTVTVSS VL: DIQMTQSPSSLSASVGDGVTITCRASQNINNYLSWYQKKAGKAPKLLIYGASTLHSGVPSRFSGSGSGTDFTLTISSLQPEDFASYYCQQNSPTPPWTFGQGTKVEIK | 1.52 |  |
| sd1.040 (antibody, V domains shown) VH: QVQLVQSGAEVKKPGASVKVSCKASGYTFTSFYIHWVRQAPGQGLEWMGIIDPSGGSTSYPQKFQGRVTMTRDTSTSTVYMDLSSLRSEDTAVYYCTRDGSAGDNSWFDPWGQGTLVTVSS VL: not shown | 245 |  |
| hr2.090 (antibody, V domains shown) VH: EVQLLESGGGLVQPGGSLRLSCAASGVTFSRYAMSWVRQAPGKGLEWVSTISGGGGGTYYADSVKGRFTISRDNSKNTLYLQMNSLRAEDTAVYYCATLLTVPGPYYFEYWGQGTLVTVSS VL: EIVLTQSPGTLSLSPGERATLSCRASQSVSSSYLAWYQQKPGQAPRLLIYGASSRATGIPDRFSGSGSGTDFTLTISRLESEDFAVYYCQHSRFTFGPGTRVDIK |  | Ancestral Pseudovirus IC50 [2]: 1020 ng/mL |
| rbd.142 (antibody, V domains shown) VH: EVQLVESGGGVVQPGRSLRLSCVASGLTFSRYGMHWVRQAPGKGLEWVAVTTYDGSNKDYADSVKGRFTISRDNSKNTLYLQMNSLRAEDTAVYYCAKVGGGEYCSGGSCYGSYGMDVWGQGTTVTVSS VL: not shown | 5090 |  |
